Consider one molecule from publication PMC6124603 (Journal of Visualized Experiments : JoVE, 2018).

In assay [1] the target is CD22 construct with smaller N-linked glycans (human) (UniProt P20273). The assay is described as follows: BLI. For orientation: Biolayer interferometry detects binding as a change in optical thickness at a sensor tip.
For assay [2], the target named is T1, CD22 extracellular domain (CD22 ECD) produced in HEK293F cells (Homo sapiens, UniProt P20273). Description: BLI.
The target in assay [3] is T1, CD22 extracellular domain (CD22 ECD) …. The assay is described as follows: ITC. Background: In ITC the heat of successive injections is recorded.

T1 sequence (P20273 20-687): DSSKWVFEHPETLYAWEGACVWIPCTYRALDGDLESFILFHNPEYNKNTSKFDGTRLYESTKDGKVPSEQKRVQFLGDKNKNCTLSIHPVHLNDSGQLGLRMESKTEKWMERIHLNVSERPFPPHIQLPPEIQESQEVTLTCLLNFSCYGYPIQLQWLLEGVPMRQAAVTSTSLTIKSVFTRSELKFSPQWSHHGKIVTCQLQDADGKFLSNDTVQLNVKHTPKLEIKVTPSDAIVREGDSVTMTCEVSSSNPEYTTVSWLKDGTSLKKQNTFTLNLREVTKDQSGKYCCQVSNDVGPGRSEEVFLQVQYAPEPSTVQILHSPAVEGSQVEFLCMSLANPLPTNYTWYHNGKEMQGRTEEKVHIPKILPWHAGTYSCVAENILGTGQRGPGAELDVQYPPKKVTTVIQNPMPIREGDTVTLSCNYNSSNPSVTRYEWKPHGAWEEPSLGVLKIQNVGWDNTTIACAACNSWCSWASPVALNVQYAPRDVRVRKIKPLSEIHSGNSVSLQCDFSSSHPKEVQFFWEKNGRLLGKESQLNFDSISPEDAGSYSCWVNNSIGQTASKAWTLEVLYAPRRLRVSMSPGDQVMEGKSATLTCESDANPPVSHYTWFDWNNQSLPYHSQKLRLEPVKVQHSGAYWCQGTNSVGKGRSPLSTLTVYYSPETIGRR
Sequence of CD22 construct with smaller N-linked glycans (human) (P20273 20-687): as above

B1: epratuzumab Fab (Fab, V domains shown)
VH: QVQLVQSGAEVKKPGSSVKVSCKASGYTFTSYWLHWVRQAPGQGLEWIGYINPRNDYTEYNQNFKDKATITADESTNTAYMELSSLRSEDTAFYFCARRDITTFYWGQGTTVTVSS
VL: DIQLTQSPSSLSASVGDRVTMSCKSSQSVLYSANHKNYLAWYQQKPGKAPKLLIYWASTRESGVPSRFSGSGSGTDFTLTISSLQPEDIATYYCHQYLSSWTFGGGTKLEIK
For the molecule B1, the Kd (commonly the concentration at which binding is half-saturated) in assay [1] came out at 24 nM; in assay [2] it was 327 nM; in assay [3] it was 188 nM.
